One block for each binder: values may come before it.
Experiments:
[1] = target: Cynomolgus monkey TSLP (cynomolgus monkey, UniProt A0A7N9CAT7 29-159); test: cell-based or functional assay
[2] = target: T1, Human thymic stromal lymphopoietin (TSLP) (human, UniProt Q969D9 29-159); test: cell-based or functional assay
[3] = target: natural TSLP; test: cell-based or functional assay
[4] = target: T1, Human thymic stromal lymphopoietin …; test: SPR, Biacore T200, 25 C, antibody captured on Protein A chip, human TSLP as analyte, 1:1 model, mean of three tests
Procedure: Biacore T200 was used to detect the affinity of QX008N (HZD8G2-57) binding to human TSLP. All processes were performed at 25° C. A commercial Protein A chip was used to immobilize an appropriate amount of antibody through the capture method so that Rmax was around 50RU and the capture flow rate was 10 μl/min. The antigen was diluted by gradient, the flow rate of the instrument was switch to 30 μl/min, and the antigen flowed through the reference channel and the fixed antibody channel in order from low to high concentration, with the antigen flowing through the buffer as a negative control. After each binding and dissociation was completed, the chip was regenerated with glycine at pH 1.5. The 1:1 binding model in Kinetics option was selected for fitting using the analysis software that comes with the instrument, and the binding rate constant kₐ, the dissociation rate constant kd and the equilibrium dissociation constant KD value of the antibody were calculated.
The detection method for known antibodies was the same as that for QX008N.

Chain of Cynomolgus monkey TSLP (A0A7N9CAT7 entry or part of it): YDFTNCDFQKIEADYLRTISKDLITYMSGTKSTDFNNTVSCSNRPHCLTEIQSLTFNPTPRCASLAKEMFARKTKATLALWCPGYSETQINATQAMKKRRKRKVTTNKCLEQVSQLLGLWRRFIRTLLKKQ

IC50 of inhibiting STAT5 phosphorylation in SW756-STAT5-Luciferase reporter gene cells induced by Cynomolgus monkey TSLP [1]: 1.88 ng/mL
B1: Tezepelumab (antibody, V domains shown)
VH: QMQLVESGGGVVQPGRSLRLSCAASGFTFRTYGMHWVRQAPGKGLEWVAVIWYDGSNKHYADSVKGRFTITRDNSKNTLNLQMNSLRAEDTAVYYCARAPQWELVHEAFDIWGQGTMVTVSS
VL: SYVLTQPPSVSVAPGQTARITCGGNNLGSKSVHWYQQKPGQAPVLVVYDDSDRPSWIPERFSGSNSGNTATLTISRGEAGDEADYYCQVWDSSSDHVVFGGGTKLTVLG

IC50 of inhibiting STAT5 phosphorylation in SW756-STAT5-Luciferase reporter gene cells induced by human TSLP [2]: 0.837 ng/mL
IC50 of inhibiting the release of TARC (CCL17) from PBMCs induced by human TSLP [2]: 77.1 ng/mL
IC50 of inhibiting the release of TARC (CCL17) from human whole blood induced by human TSLP [2]: 0.839 ng/mL
IC50 of inhibiting STAT5 phosphorylation in SW756-STAT5-Luciferase reporter gene cells induced by natural TSLP [3]: 0.462 ng/mL
IC50 of inhibiting STAT5 phosphorylation in SW756-STAT5-Luciferase reporter gene cells induced by Cynomolgus monkey TSLP [1]: 0.889 ng/mL
Kd [4]: 0.0175 nM
koff [4]: 2.99e-05 s⁻¹
kon [4]: 1.74e+06 M⁻¹ s⁻¹
B2: QX008N (HZD8G2-57) (antibody, human IgG1, kappa, V domains shown)
VH: EVQLVESGGGLVQPGGSLRLSCAASGFSLSSYYMSWVRQAPGKGLEWVGFISYGGSAYHATWAQGRFTISKDNSKNTLYLQMNSLRAEDTAVYYCAREFRSMTYGAEWGIWGQGTLVTVSS
VL: AYQMTQSPSSVSASVGDRVTITCQASESIYDTLAWYQQKPGKAPKLLIYSASSLASGVPSRFSGSGSGTDFTLTISSLQPEDFATYYCQQGYTMPDVDKNPFGGGTKVEIKR
notes: Humanized rabbit antibody from clone 8G2; Expressed in ExpiCHO-S cells and purified with Protein A; also called humanized 8G2

— US20240352117A1 (QYUNS THERAPEUTICS, published 2024)
